The data set concerns the molecule itself. Description: crystal structure; crystals from 0.1 M HEPES pH 7.5, 25% wt/v polyethylene glycol 1000; space group P4(1)22; one monomer in the asymmetric unit, tetramer by crystal symmetry.

B1: RNase J residues 139–691 (H. pylori strain 26695) with a C-terminal hexa-histidine tag (domain or fragment, Helicobacter pylori strain 26695, UniProt P56185 137-689, looked up)
chain: SKASVKITPLGGLGEIGGNMMVIETPKSAIVIDAGMSFPKEGLFGVDILIPDFSYLHQIKDKIAGIIITHAHEDHIGATPYLFKELQFPLYGTPLSLGLIGSKFDEHGLKKYRSYFKIVEKRCPISVGEFIIEWIHITHSIIDSSALAIQTKAGTIIHTGDFKIDHTPVDNLPTDLYRLAHYGEKGVMLLLSDSTNSHKSGTTPSESTIAPAFDTLFKEAQGRVIMSTFSSNIHRVYQAIQYGIKYNRKIAVIGRSMEKNLDIARELGYIHLPYQSFIEANEVAKYPDNEILIVTTGSQGETMSALYRMATDEHRHISIKPNDLVIISAKAIPGNEASVSAVLNFLIKKEAKVAYQEFDNIHVSGHAAQEEQKLMLRLIKPKFFLPVHGEYNHVARHKQTAISCGVPEKNIYLMEDGDQVEVGPAFIKKVGTIKSGKSYVDNQSNLSIDTSIVQQREEVASAGVFVATIFVNKNKQALLESSQFSSLGLVGFKDEKPLIKEIQGGLEVLLKSSNAEILNNPKKLEDHTRNFIRKALFKKFRKYPAIICHAHSF
notes: the results say 137–691); One monomer in the asymmetric unit; the tetramer (dimer-of-dimers) is generated by crystal symmetry; The CTD (587–691) is poorly ordered in the crystal; also called RNase J 139–691; C1hRSEj; source: E. coli, co-expressed with RhpA 21–465, purified (HiTrap Ni column, HALO resin flow-through, S200 SEC)
For B1, the “stoichiometry N” value was 4.

The values are drawn from PMC10700544, “Acetylation regulates the oligomerization state and activity of RNase J, the Helicobacter pylori major ribonuclease” (Nature Communications, 2023).
